Data from the supplement of paper PMC10724198.
± gives the standard deviation of the averaged measurements.

Each sequence was assayed on Saccharomyces cerevisiae (assay: protein stability index of tFT-peptide fusion (C-terminal peptide) (PSI (0-1 scale)); higher = more stable (slower turnover)). Conditions: genetic background: cdc53-1; temperature: 37 C.
Procedure: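 MPS profiling in S. cerevisiae of the tFT-X12 degron library: putative degron peptides plus stable controls, 12 aa, fused to the C-terminus of a sfGFP-mCherry timer. Cells are FACS-sorted into 8 mCherry/sfGFP bins and deep-sequenced. PSI runs from 0 (unstable) to 1 (stable). Backgrounds are wild type, das1Δ and doa10Δ at 30 °C, and wild type, das1Δ, cdc34-1 and cdc53-1 at 37 °C; 2-3 technical replicates each.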
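Further: PSI is a weighted mean of sequencing reads over stability bins, variants kept only with over 10 reads, mCherry proximal and sfGFP distal, peptide attached via GGGS linker.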

| Sequence | protein stability index |
| --- | --- |
| MACLRLTVYVMG | 0.0769 ± 0.045 |
| MALAVRVVACGA | 0.1647 ± 0.0014 |
| MFLHLGLFIMSH | 0.4065 ± 0.0032 |
| MFWKFVFRGFWF | 0.739 ± 0.008 |
| MMEMMTKSNRIP | 0.737 ± 0.015 |
| MQFVALFLVGLL | 0.5087 ± 0.001 |
| MRGPAWVCVLYS | 0.711 ± 0.012 |
| MSVLAFVCCLSG | 0.311 ± 0.0052 |
| NDVGGYFYVCSE | 0.749 ± 0.013 |
| NHKTIRIQNKSI | 0.775 ± 0.045 |
| NKYSMQNVLKSF | 0.711 ± 0.02 |
| NLDRYYKKIKLI | 0.69 ± 0.013 |
| NLSYFFFSVLFF | 0.562 ± 0.018 |
| NSCHFYSRFYLA | 0.7421 ± 0.00091 |
| NVALHPGVPRKC | 0.715 ± 0.018 |
| NYCLYFKLSRLS | 0.691 ± 0.016 |
| NYVFALFYMVVA | 0.311 ± 0.031 |
| PALPTPPVSPSP | 0.667 ± 0.11 |
| PCVPRLLPLQLS | 0.795 ± 0.028 |
| PCYRPPLPALLS | 0.69 ± 0.0093 |
| PDPIFGEWVYMV | 0.72148 ± 0.00041 |
| PFAFLSLVLLLP | 0.5103 ± 0.0028 |
| PFFFIFVLPFVF | 0.51212 ± 0.00041 |
| PFLLLVSPISSC | 0.403 ± 0.01 |
| PGFCFFLYYCMM | 0.558 ± 0.056 |
| PHGASLCVPPSP | 0.739 ± 0.0082 |

| Sequence | protein stability index |
| --- | --- |
| PHGLKPHCPTPS | 0.745 ± 0.021 |
| PLRVFFLVAFCL | 0.4799 ± 0.0037 |
| PLSNLCRVLTFI | 0.639 ± 0.0012 |
| PLSSHIPVHEAR | 0.744 ± 0.035 |
| PPLTRVPLSISA | 0.465 ± 0.016 |
| PPPPLATTSAPL | 0.74266 ± 0.0006 |
| PPSLFLLLKVFF | 0.362 ± 0.012 |
| PPSPPPLSASVP | 0.698 ± 0.025 |
| PRHLTPPPAPSA | 0.721 ± 0.024 |
| PRHVLWLRRLLF | 0.7289 ± 0.0067 |
| PRLRPQTVAFLS | 0.732 ± 0.013 |
| PVGLMKRFRLFI | 0.727 ± 0.02 |
| PVPPSLLHRPPF | 0.736 ± 0.045 |
| PWAHIRTVQTYV | 0.716 ± 0.013 |
| PWFSWLLYSFLF | 0.529 ± 0.031 |
| PYSLYASSSSPL | 0.7492 ± 0.0029 |
| QCSVRLKEIQFS | 0.726 ± 0.011 |
| QERKILGRIKQA | 0.6853 ± 0.00099 |
| QITIYPIPLARF | 0.937 ± 0.0099 |
| QPSSFDMLGLLL | 0.738 ± 0.019 |
| RFKEKVSIIHKQ | 0.665 ± 0.061 |
| RGYATTALHWVS | 0.7695 ± 0.0075 |
| RHRGHVRLALLN | 0.845 ± 0.041 |
| RICCLFILLFCL | 0.464 ± 0.024 |
| RIEGTLTARTAF | 0.7639 ± 0.0033 |
| RITGCWKTYKMQ | 0.721 ± 0.0019 |

| Sequence | protein stability index |
| --- | --- |
| RKNIKISKAGIG | 0.394 ± 0.0056 |
| RKRTILVIIVVK | 0.33 ± 0.042 |
| RKVWSLCWFVHL | 0.617 ± 0.012 |
| RLGRYSIIHCLA | 0.459 ± 0.044 |
| RLHCFSPILCPI | 0.576 ± 0.0073 |
| RLIARFKILRCI | 0.588 ± 0.011 |
| RLINCIYVLMLP | 0.569 ± 0.0072 |
| RLLRGDRMVICS | 0.565 ± 0.057 |
| RLMLSWLALRRC | 0.665 ± 0.015 |
| RLPYSLTFFLLC | 0.5789 ± 0.0027 |
| RLVCPFYIACVW | 0.649 ± 0.01 |
| RNCSFRRIQLAM | 0.699 ± 0.032 |
| RNKIWCTVIMRL | 0.537 ± 0.0088 |
| RPAVVPPPFAPL | 0.724 ± 0.023 |
| RQALYFLMICGL | 0.564 ± 0.023 |
| RRIKIRKQEYIS | 0.696 ± 0.04 |
| RRRRHVDHSTQR | 0.572 ± 0.0085 |
| RTWLHLVVPVWG | 0.265 ± 0.044 |
| RVGWVVVLGCVG | 0.548 ± 0.014 |
| RVHFLIVFLCRF | 0.4927 ± 0.0037 |
| RVSIIYLGVLIS | 0.297 ± 0.025 |
| RVTYWKAVLVRL | 0.461 ± 0.022 |
| RYCVVDISAFCD | 0.576 ± 0.021 |
| RYLCLTPALYLS | 0.5588 ± 0.0053 |
| SCFRFFFLFLFF | 0.197 ± 0.0042 |
| SCFRSLAVYFLC | 0.624 ± 0.02 |

Same assay, conditions: genetic background: das1 deletion; temperature: 30 C

| Sequence | protein stability index |
| --- | --- |
| MACLRLTVYVMG | 0.135 ± 0.031 |
| MALAVRVVACGA | 0.196 ± 0.026 |
| MFLHLGLFIMSH | 0.303 ± 0.025 |
| MFWKFVFRGFWF | 0.641 ± 0.034 |
| MMEMMTKSNRIP | 0.63 ± 0.016 |
| MQFVALFLVGLL | 0.346 ± 0.049 |
| MRGPAWVCVLYS | 0.59 ± 0.044 |
| MSVLAFVCCLSG | 0.289 ± 0.033 |
| NDVGGYFYVCSE | 0.641 ± 0.012 |
| NHKTIRIQNKSI | 0.64 ± 0.034 |
| NKYSMQNVLKSF | 0.632 ± 0.025 |
| NLDRYYKKIKLI | 0.689 ± 0.063 |
| NLSYFFFSVLFF | 0.506 ± 0.033 |
| NSCHFYSRFYLA | 0.657 ± 0.022 |
| NVALHPGVPRKC | 0.677 ± 0.026 |
| NYCLYFKLSRLS | 0.603 ± 0.015 |
| NYVFALFYMVVA | 0.224 ± 0.033 |
| PALPTPPVSPSP | 0.256 ± 0.025 |
| PCVPRLLPLQLS | 0.6546 ± 0.005 |
| PCYRPPLPALLS | 0.62 ± 0.036 |
| PDPIFGEWVYMV | 0.644 ± 0.0072 |
| PFAFLSLVLLLP | 0.418 ± 0.029 |
| PFFFIFVLPFVF | 0.366 ± 0.024 |
| PFLLLVSPISSC | 0.301 ± 0.028 |
| PGFCFFLYYCMM | 0.416 ± 0.031 |
| PHGASLCVPPSP | 0.647 ± 0.0089 |

| Sequence | protein stability index |
| --- | --- |
| PHGLKPHCPTPS | 0.654 ± 0.016 |
| PLRVFFLVAFCL | 0.372 ± 0.024 |
| PLSNLCRVLTFI | 0.575 ± 0.03 |
| PLSSHIPVHEAR | 0.699 ± 0.017 |
| PPLTRVPLSISA | 0.292 ± 0.04 |
| PPPPLATTSAPL | 0.661 ± 0.0092 |
| PPSLFLLLKVFF | 0.279 ± 0.037 |
| PPSPPPLSASVP | 0.667 ± 0.053 |
| PRHLTPPPAPSA | 0.675 ± 0.022 |
| PRHVLWLRRLLF | 0.622 ± 0.02 |
| PRLRPQTVAFLS | 0.651 ± 0.011 |
| PVGLMKRFRLFI | 0.615 ± 0.031 |
| PVPPSLLHRPPF | 0.682 ± 0.014 |
| PWAHIRTVQTYV | 0.595 ± 0.011 |
| PWFSWLLYSFLF | 0.526 ± 0.013 |
| PYSLYASSSSPL | 0.68 ± 0.023 |
| QCSVRLKEIQFS | 0.673 ± 0.03 |
| QERKILGRIKQA | 0.651 ± 0.05 |
| QITIYPIPLARF | 0.807 ± 0.015 |
| QPSSFDMLGLLL | 0.654 ± 0.0092 |
| RFKEKVSIIHKQ | 0.693 ± 0.04 |
| RGYATTALHWVS | 0.6757 ± 0.002 |
| RHRGHVRLALLN | 0.772 ± 0.013 |
| RICCLFILLFCL | 0.396 ± 0.03 |
| RIEGTLTARTAF | 0.635 ± 0.033 |
| RITGCWKTYKMQ | 0.615 ± 0.0094 |

| Sequence | protein stability index |
| --- | --- |
| RKNIKISKAGIG | 0.343 ± 0.012 |
| RKRTILVIIVVK | 0.234 ± 0.045 |
| RKVWSLCWFVHL | 0.512 ± 0.012 |
| RLGRYSIIHCLA | 0.327 ± 0.029 |
| RLHCFSPILCPI | 0.434 ± 0.029 |
| RLIARFKILRCI | 0.559 ± 0.012 |
| RLINCIYVLMLP | 0.412 ± 0.029 |
| RLLRGDRMVICS | 0.395 ± 0.039 |
| RLMLSWLALRRC | 0.601 ± 0.036 |
| RLPYSLTFFLLC | 0.484 ± 0.038 |
| RLVCPFYIACVW | 0.509 ± 0.016 |
| RNCSFRRIQLAM | 0.594 ± 0.0073 |
| RNKIWCTVIMRL | 0.453 ± 0.036 |
| RPAVVPPPFAPL | 0.707 ± 0.0089 |
| RQALYFLMICGL | 0.407 ± 0.039 |
| RRIKIRKQEYIS | 0.684 ± 0.029 |
| RRRRHVDHSTQR | 0.542 ± 0.011 |
| RTWLHLVVPVWG | 0.222 ± 0.034 |
| RVGWVVVLGCVG | 0.401 ± 0.027 |
| RVHFLIVFLCRF | 0.369 ± 0.011 |
| RVSIIYLGVLIS | 0.26 ± 0.024 |
| RVTYWKAVLVRL | 0.44 ± 0.031 |
| RYCVVDISAFCD | 0.368 ± 0.029 |
| RYLCLTPALYLS | 0.509 ± 0.027 |
| SCFRFFFLFLFF | 0.282 ± 0.024 |
| SCFRSLAVYFLC | 0.603 ± 0.033 |
